# Reference: PMC5702604 (2017)
# B1: Piezo1-GST fusion protein (mouse Piezo1) [mouse] / Flag-tagged SERCA2 (SERCA2b) [not stated] (parent complex)
# chain 1: MEPHVLGAGLYWLLLPCTLLAASLLRFNALSLVYLLFLLLLPWLPGPSRHSIPGHTGRLLRALLCLSLLFLVAHLAFQICLHTVPHLDQFLGQNGSLWVKVSQHIGVTRLDLKDIFNTTRLVAPDLGVLLASSLCLGLCGRLTRKAGQSRRTQELQDDDDDDDDDDEDIDAAPAVGLKGAPALATKRRLWLASRFRVTAHWLLMTSGRTLVIVLLALAGIAHPSAFSSIYLVVFLAICTWWSCHFPLSPLGFNTLCVMVSCFGAGHLICLYCYQTPFIQDMLPPGNIWARLFGLKNFVDLPNYSSPNALVLNTKHAWPIYVSPGILLLLYYTATSLLKLHKSCPSELRKETPREDEEHELELDHLEPEPQARDATQGEMPMTTEPDLDNCTVHVLTSQSPVRQRPVRPRLAELKEMSPLHGLGHLIMDQSYVCALIAMMVWSIMYHSWLTFVLLLWACLIWTVRSRHQLAMLCSPCILLYGLTLCCLRYVWAMELPELPTTLGPVSLHQLGLEHTRYPCLDLGAMLLYLLTFWLLLRQFVKEKLLKKQKVPAALLEVTVADTEPTQTQTLLRSLGELVTGIYVKYWIYVCAGMFIVVSFAGRLVVYKIVYMFLFLLCLTLFQVYYTLWRKLLRVFWWLVVAYTMLVLIAVYTFQFQDFPTYWRNLTGFTDEQLGDLGLEQFSVSELFSSILIPGFFLLACILQLHYFHRPFMQLTDLEHVPPPGTRHPRWAHRQDAVSEAPLLEHQEEEEVFREDGQSMDGPHQATQVPEGTASKWGLVADRLLDLAASFSAVLTRIQVFVRRLLELHVFKLVALYTVWVALKEVSVMNLLLVVLWAFALPYPRFRPMASCLSTVWTCIIIVCKMLYQLKIVNPHEYSSNCTEPFPNNTNLQPLEINQSLLYRGPVDPANWFGVRKGYPNLGYIQNHLQILLLLVFEAVVYRRQEHYRRQHQQAPLPAQAVCADGTRQRLDQDLLSCLKYFINFFFYKFGLEICFLMAVNVIGQRMNFMVILHGCWLVAILTRRRREAIARLWPNYCLFLTLFLLYQYLLCLGMPPALCIDYPWRWSKAIPMNSALIKWLYLPDFFRAPNSTNLISDFLLLLCASQQWQVFSAERTEEWQRMAGINTDHLEPLRGEPNPIPNFIHCRSYLDMLKVAVFRYLFWLVLVVVFVAGATRISIFGLGYLLACFYLLLFGTTLLQKDTRAQLVLWDCLILYNVTVIISKNMLSLLSCVFVEQMQSNFCWVIQLFSLVCTVKGYYDPKEMMTRDRDCLLPVEEAGIIWDSICFFFLLLQRRIFLSHYFLHVSADLKATALQASRGFALYNAANLKSINFHRQIEEKSLAQLKRQMKRIRAKQEKYRQSQASRGQLQSKDPQDPSQEPGPDSPGGSSPPRRQWWRPWLDHATVIHSGDYFLFESDSEEEEEALPEDPRPAAQSAFQMAYQAWVTNAQTVLRQRRERARQERAEQLASGGDLNPDVEPVDVPEDEMAGRSHMMQRVLSTMQFLWVLGQATVDGLTRWLRAFTKHHRTMSDVLCAERYLLTQELLRVGEVRRGVLDQLYVGEDEATLSGPVETRDGPSTASSGLGAEEPLSSMTDDTSSPLSTGYNTRSGSEEIVTDAGDLQAGTSLHGSQELLANARTRMRTASELLLDRRLHIPELEEAERFEAQQGRTLRLLRAGYQCVAAHSELLCYFIIILNHMVTASAASLVLPVLVFLWAMLTIPRPSKRFWMTAIVFTEVMVVTKYLFQFGFFPWNSYVVLRRYENKPYFPPRILGLEKTDSYIKYDLVQLMALFFHRSQLLCYGLWDHEEDRYPKDHCRSSVKDREAKEEPEAKLESQSETGTGHPKEPVLAGTPRDHIQGKGSIRSKDVIQDPPEDLKPRHTRHISIRFRRRKETPGPKGTAVMETEHEEGEGKETTERKRPRHTQEKSKFRERMKAAGRRLQSFCVSLAQSFYQPLQRFFHDILHTKYRAATDVYALMFLADIVDIIIIIFGFWAFGKHSAATDIASSLSDDQVPQAFLFMLLVQFGTMVIDRALYLRKTVLGKLAFQVVLVVAIHIWMFFILPAVTERMFSQNAVAQLWYFVKCIYFALSAYQIRCGYPTRILGNFLTKKYNHLNLFLFQGFRLVPFLVELRAVMDWVWTDTTLSLSNWMCVEDIYANIFIIKCSRETEKKYPQPKGQKKKKIVKYGMGGLIILFLIAIIWFPLLFMSLIRSVVGVVNQPIDVTVTLKLGGYEPLFTMSAQQPSIVPFTPQAYEELSQQFDPYPLAMQFISQYSPEDIVTAQIEGSSGALWRISPPSRAQMKQELYNGTADITLRFTWNFQRDLAKGGTVEYTNEKHTLELAPNSTARRQLAQLLEGRPDQSVVIPHLFPKYIRAPNGPEANPVKQLQPDEEEDYLGVRIQLRREQVGTGASGEQAGTKASDFLEWWVIELQDCKADCNLLPMVIFSDKVSPPSLGFLAGYGIVGLYVSIVLVVGKFVRGFFSEISHSIMFEELPCVDRILKLCQDIFLVRETRELELEEELYAKLIFLYRSPETMIKWTRERE
# chain 2: MENAHTKTVEEVLGHFGVNESTGLSLEQVKKLKERWGSNELPAEEGKTLLELVIEQFEDLLVRILLLAACISFVLAWFEEGEETITAFVEPFVILLILVANAIVGVWQERNAENAIEALKEYEPEMGKVYRQDRKSVQRIKAKDIVPGDIVEIAVGDKVPADIRLTSIKSTTLRVDQSILTGESVSVIKHTDPVPDPRAVNQDKKNMLFSGTNIAAGKAMGVVVATGVNTEIGKIRDEMVATEQERTPLQQKLDEFGEQLSKVISLICIAVWIINIGHFNDPVHGGSWIRGAIYYFKIAVALAVAAIPEGLPAVITTCLALGTRRMAKKNAIVRSLPSVETLGCTSVICSDKTGTLTTNQMSVCRMFILDRVEGDTCSLNEFTITGSTYAPIGEVHKDDKPVNCHQYDGLVELATICALCNDSALDYNEAKGVYEKVGEATETALTCLVEKMNVFDTELKGLSKIERANACNSVIKQLMKKEFTLEFSRDRKSMSVYCTPNKPSRTSMSKMFVKGAPEGVIDRCTHIRVGSTKVPMTSGVKQKIMSVIREWGSGSDTLRCLALATHDNPLRREEMHLEDSANFIKYETNLTFVGCVGMLDPPRIEVASSVKLCRQAGIRVIMITGDNKGTAVAICRRIGIFGQDEDVTSKAFTGREFDELNPSAQRDACLNARCFARVEPSHKSKIVEFLQSFDEITAMTGDGVNDAPALKKAEIGIAMGSGTAVAKTASEMVLADDNFSTIVAAVEEGRAIYNNMKQFIRYLISSNVGEVVCIFLTAALGFPEALIPVQLLWVNLVTDGLPATALGFNPPDLDIMNKPPRNPKEPLISGWLFFRYLAIGCYVGAATVGAAAWWFIAADGGPRVSFYQLSHFLQCKEDNPDFEGVDCAIFESPYPMTMALSVLVTIEMCNALNSLSENQSLLRMPPWENIWLVGSICLSMSLHFLILYVEPLPLIFQITPLNVTQWLMVLKISLPVILMDETLKFVARNYLEPGKECVQPATKSCSFSACTDGISWPFVLLIMPLVIWVYSTDTNFSDMFWS
# Variants of: B1
# Test: GST pull-down, western blot quantification; co-expressed Flag-SERCA2; repeated 3 times; mean ± s.e.m.; parent: 1; read off a plot
row,ratio to parent,Variant
1,~0.4,"chain 1 E2172A, chain 1 K2173A, chain 1 K2174A, chain 1 Y2175A, chain 1 P2176A, chain 1 Q2177A, chain 1 P2178A, chain 1 K2179A, chain 1 G2180A, chain 1 Q2181A"
2,~0.3,"chain 1 K2182A, chain 1 K2183A, chain 1 K2184A, chain 1 K2185A"
